No end group written: not given here.
B1: GST-Ame1^1-30 (domain or fragment)
chain: {GST}-MDRDTKLAFRLRGSHSRRTDDIDDDVIVFK
B2: Mtw1 complex (recombinant four-protein complex with a deletion of the N-terminal 172 residues of Dsn1) (complex)
chain 1: MSAPTMRSTSILTEHLGYPPISLVDDIINAVNEIMYKCTAAMEKYLLSKSKIGEEDYGEEIKSGVAKLESLLENSVDKNFDKLELYVLRNVLRIPEEYLDANVFRLENQKDLVIVDENELKKSEEKLREKVNDVELAFKKNEMLLKRVTKVKRLLFTIRGFKQKLNELLKCKDDVQLQKILESLKPIDDTMTLLTDSLRKLYVDSESTSSTEEVEALLQRLKTNGKQNNKDFRTRYIDIRTNNVLRKLGLLGDKEDEKQSAKPDARTQAGDIVSIDIEEPQLDLLDDVL
chain 2: MVNSHGIRYIRLKQVFNRALDQSISKLQSWDKVSSCFPQYVNSKQGAINVANCQRQLTEFWTELCQREFKEIMEERNVEQKLNELDELILEAKERYTDRDQDEVNKGPAIDELSSKELVECHLYSQRMHAIHEIDERLAKVNEMNDQLAQELKDLETQVEVEKNEIGKMYDEYLGSHTDQPANVLLVQSLNDMVLELKENY
chain 3: MSQGQSKKLDVTVEQLRSIYHQFHDILEEKTDLHLPKKEYDDDAVRREVQIQLQEFLLSAMTMASKSLEVVNADTVGKTVKQLIMESQEKYMEPFDLDLNEQVRKMYQEWEDETVKVAQLRQTGPAKINEVYNNSKDEYLAQLDGRIGVLQARMMQQQSADHDDSTDDADDHINWEHIKQDYVASLNELYQTQQDLPKVRYNVEKVKRLMDFLEED
chain 4: HSIMPNSSLQPFYSQPTAAGGPDMTTPQNISSSQQLLPAPQLFPYGSFHQQQLQQPHYIQRTRERKKSIGSQRGRRLSMLASQANGGSTIISPHKDIPEEDFYTVVGNASFGKNLQIRQLFNWCLMRSLHKLELKAKNQEEEGELEHLTKKSKLESTKAETDYVDPKRLAMVIIKEFVDDLKKDHIAIDWEDEEKYEDEDEEKILDNTENYDDTELRQLFQENDDDDDDDDEVDYSEIQRSRRKFSERRKALPKEPKKLLPNSKNVENTKNLSILTSKVNAIKNEVKEWAVTLDTSRPDLEWQELTSFSSQPLEPLSDTEEPDLAIADVETKLETKVDELRYQSHILNSHSLALNEITNSKVNKLNIETMRKISSETDDDHSQVINPQQLLKGLSLSFSKKLDL
B3: Mtw1-Nnf1 heterodimer (complex)
chain 1: B2 chain 1
chain 2: B2 chain 2

Assays:
Mtw1-Nnf1 heterodimer = target: B3; assay: ITC
Ndc80 complex = Ndc80 complex (budding yeast, UniProt P40460;P33895;Q04477;P40014); assay: SEC
Ndc80 complex, sequence (P40460 whole entry, chain 1 of 4): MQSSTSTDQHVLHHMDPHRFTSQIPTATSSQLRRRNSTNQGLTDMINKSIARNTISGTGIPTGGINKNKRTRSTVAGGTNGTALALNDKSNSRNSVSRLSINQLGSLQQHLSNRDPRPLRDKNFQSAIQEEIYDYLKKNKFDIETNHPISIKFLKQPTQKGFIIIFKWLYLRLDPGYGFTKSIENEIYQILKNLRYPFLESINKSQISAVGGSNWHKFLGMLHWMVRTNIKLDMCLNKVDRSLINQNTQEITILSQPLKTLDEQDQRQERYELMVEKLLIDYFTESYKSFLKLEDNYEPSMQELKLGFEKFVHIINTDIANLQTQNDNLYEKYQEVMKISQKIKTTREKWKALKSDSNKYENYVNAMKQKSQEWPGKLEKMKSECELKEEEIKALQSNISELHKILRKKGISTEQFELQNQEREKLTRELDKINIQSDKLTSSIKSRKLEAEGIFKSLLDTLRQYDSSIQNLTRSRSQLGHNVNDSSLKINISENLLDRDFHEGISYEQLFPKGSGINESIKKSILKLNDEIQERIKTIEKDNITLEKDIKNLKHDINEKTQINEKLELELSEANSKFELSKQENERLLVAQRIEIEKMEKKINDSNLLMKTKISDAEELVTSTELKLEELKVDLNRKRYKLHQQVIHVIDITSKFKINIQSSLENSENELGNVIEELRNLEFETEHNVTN
Ndc80 complex, sequence (P33895 whole entry, chain 2 of 4): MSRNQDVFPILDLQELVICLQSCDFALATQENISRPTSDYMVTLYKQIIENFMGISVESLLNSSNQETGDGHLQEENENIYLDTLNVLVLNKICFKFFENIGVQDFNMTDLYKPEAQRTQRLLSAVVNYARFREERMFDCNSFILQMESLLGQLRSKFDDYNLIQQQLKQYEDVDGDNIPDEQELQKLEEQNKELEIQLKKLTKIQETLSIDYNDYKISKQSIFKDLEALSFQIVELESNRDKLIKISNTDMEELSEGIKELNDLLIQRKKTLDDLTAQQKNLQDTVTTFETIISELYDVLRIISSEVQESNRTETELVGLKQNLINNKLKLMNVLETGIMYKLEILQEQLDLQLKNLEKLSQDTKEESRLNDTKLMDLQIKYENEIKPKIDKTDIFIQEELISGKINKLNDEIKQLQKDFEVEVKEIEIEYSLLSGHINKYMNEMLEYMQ
Ndc80 complex, sequence (Q04477 whole entry, chain 3 of 4): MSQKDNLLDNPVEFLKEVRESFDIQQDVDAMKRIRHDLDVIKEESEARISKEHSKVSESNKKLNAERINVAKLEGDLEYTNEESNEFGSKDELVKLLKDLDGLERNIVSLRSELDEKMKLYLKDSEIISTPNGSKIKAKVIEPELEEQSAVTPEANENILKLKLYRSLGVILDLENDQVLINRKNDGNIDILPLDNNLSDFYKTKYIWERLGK
Ndc80 complex, sequence (P40014 whole entry, chain 4 of 4): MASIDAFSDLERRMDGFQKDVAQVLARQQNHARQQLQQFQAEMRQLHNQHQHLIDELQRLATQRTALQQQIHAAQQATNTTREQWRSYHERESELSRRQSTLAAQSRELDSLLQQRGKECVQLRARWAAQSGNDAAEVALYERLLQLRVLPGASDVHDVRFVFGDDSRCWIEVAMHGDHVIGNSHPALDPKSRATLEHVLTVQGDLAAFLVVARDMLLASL

Ame1–Okp1 complex = Ame1–Okp1 complex (budding yeast, UniProt P38313;P53298); assay: ITC
Ame1–Okp1 complex, sequence (P53298 whole entry, one chain of several): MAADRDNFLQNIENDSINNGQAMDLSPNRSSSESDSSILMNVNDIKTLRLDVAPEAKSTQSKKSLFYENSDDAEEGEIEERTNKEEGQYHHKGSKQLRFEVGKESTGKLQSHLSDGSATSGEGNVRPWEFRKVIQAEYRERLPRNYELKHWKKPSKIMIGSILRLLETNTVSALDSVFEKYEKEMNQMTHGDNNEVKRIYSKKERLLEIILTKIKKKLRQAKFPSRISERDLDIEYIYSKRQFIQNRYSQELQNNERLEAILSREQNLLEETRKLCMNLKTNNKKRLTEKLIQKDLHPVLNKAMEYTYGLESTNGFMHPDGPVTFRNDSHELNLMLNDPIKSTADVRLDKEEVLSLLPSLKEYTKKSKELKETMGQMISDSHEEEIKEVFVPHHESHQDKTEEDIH

B1 was tested, and the Kd (Mtw1-Nnf1 heterodimer) was 1.5 µM.

B2: binds (Ndc80 complex).

For B3, the Kd (Ame1–Okp1 complex) was 1.6 µM and the “stoichiometry N” value (Ame1–Okp1 complex) was 1.
